Measurements taken from publication PMC11832932.

Molecular target: HSC70 (UniProt P11142)
Test: Flag IP, blot for HA-HSC70
Settings: reference: wild type, H2O2-treated cells; sites S371

- binding against the reference: weaker
Substance: PHGDH (from UniProt O43175) S371A, H2O2-treated cells
